Reference: the supplement of paper PMC10724198

How the values were obtained:
Saccharomyces cerevisiae [1] = experiment: protein stability index of tFT-peptide fusion in wild type (PSI (0-1 scale)); higher = more stable (slower turnover); conditions: genetic background: wild type
Saccharomyces cerevisiae [2] = experiment: protein stability index of tFT-peptide fusion in deletion strain of DOA10 (PSI (0-1 scale)); higher = more stable (slower turnover)
Method: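 MPS profiling in S. cerevisiae of two library types built from selected 12-aa C-degron peptides (IN1, IN2, LN1, LN3, VN2, R1-R5, W1-W3, Atg1 and Rpa12 C-termini): saturation mutagenesis libraries and C-terminal +1 capping libraries (13 aa). Each peptide is fused to the C-terminus of a sfGFP-mCherry timer, after a GGGS linker. Cells are FACS-sorted into 8 mCherry/sfGFP bins and sequenced. PSI runs from 0 (unstable) to 1 (stable), measured once in wild type and in the das1Δ or doa10Δ background.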

Saccharomyces cerevisiae [3] = experiment: protein stability index of tFT-peptide fusion in deletion strain of DAS1 (PSI (0-1 scale)); higher = more stable (slower turnover)
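Wherever protein stability index of tFT-peptide fusion in deletion strain of DAS1 is given: PSI is a weighted mean of each variant's read distribution over the sorted stability bins, computed only for variants having over 10 reads in total.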
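Wherever protein stability index of tFT-peptide fusion in deletion strain of DOA10 is given: PSI per variant is the weighted mean of its sequencing read distribution over the sorted stability bins, counting only variants with over 10 reads summed across bins.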
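Wherever protein stability index of tFT-peptide fusion in wild type is given: PSI derived as read-weighted mean over the 8 sorting bins, only variants exceeding 10 total reads kept, mCherry placed adjacent to the peptide and sfGFP distal.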

Row | Sequence | protein stability index (Saccharomyces cerevisiae [1]) | protein stability index (Saccharomyces cerevisiae [2]) | protein stability index (Saccharomyces cerevisiae [3])
1 | AATLPMCPLLLR | 0.377 | 0.684 | –
2 | AIDLPMCPLLLR | 0.319 | 0.651 | –
3 | AIQLPMCPLLLR | 0.213 | 0.649 | –
4 | AITLEMCPLLLR | 0.372 | 0.667 | –
5 | AITLHMCPLLLR | 0.271 | 0.62 | –
6 | AITLPCCPLLLR | 0.236 | 0.659 | –
7 | AITLPMCNLLLR | 0.29 | 0.683 | –
8 | AITLPMCPFLLR | 0.624 | 0.661 | –
9 | AITLPMCPHLLR | 0.645 | 0.687 | –
10 | AITLPMCPLALR | 0.577 | 0.643 | –
11 | AITLPMCPLELR | 0.641 | 0.682 | –
12 | AITLPMCPLLCR | 0.238 | 0.265 | –
13 | AITLPMCPLLIR | 0.219 | 0.427 | –
14 | AITLPMCPLLLQ | 0.567 | 0.654 | –
15 | AITLPMCPLLLRG | 0.31 | 0.55 | –
16 | AITLPMCPLLLW | 0.436 | 0.646 | –
17 | AITLPMCPLLLY | 0.404 | 0.517 | –
18 | AITLPMCPLLNR | 0.644 | 0.671 | –
19 | AIWLPMCPLLLR | 0.224 | 0.657 | –
20 | CAVSLPILLFFR | 0.0547 | 0.627 | –
21 | CLESLPILLFFR | 0.192 | 0.65 | –
22 | CLGSLPILLFFR | 0.0966 | 0.628 | –

Row | Sequence | protein stability index (Saccharomyces cerevisiae [1]) | protein stability index (Saccharomyces cerevisiae [2]) | protein stability index (Saccharomyces cerevisiae [3])
23 | CLMSLPILLFFR | 0.0514 | 0.591 | –
24 | CLVDLPILLFFR | 0.0636 | 0.635 | –
25 | CLVILPILLFFR | 0.0975 | 0.456 | –
26 | CLVSDPILLFFR | 0.589 | 0.656 | –
27 | CLVSEPILLFFR | 0.499 | 0.643 | –
28 | CLVSLPIGLFFR | 0.101 | 0.674 | –
29 | CLVSLPILEFFR | 0.637 | 0.672 | –
30 | CLVSLPILLCFR | 0.0846 | 0.564 | –
31 | CLVSLPILLFFN | 0.118 | 0.288 | –
32 | CLVSLPILLFFRC | 0.0599 | 0.45 | –
33 | CLVSLPILLFFRG | 0.0927 | 0.564 | –
34 | CLVSLPILLFFRI | 0.0568 | 0.469 | –
35 | CLVSLPILLFFRM | 0.0495 | 0.458 | –
36 | CLVSLPILLFFS | 0.297 | 0.467 | –
37 | CLVSLPILLFQR | 0.515 | 0.583 | –
38 | CLVSLPILLNFR | 0.424 | 0.655 | –
39 | CLVSLPILLWFR | 0.0579 | 0.567 | –
40 | CLVSLPIWLFFR | 0.0275 | 0.58 | –
41 | CLVSRPILLFFR | 0.115 | 0.638 | –
42 | CLVTLPILLFFR | 0.048 | 0.576 | –
43 | CLVYLPILLFFR | 0.0623 | 0.404 | –
44 | CLYMCSVGCWFR | 0.276 | 0.584 | –

Row | Sequence | protein stability index (Saccharomyces cerevisiae [1]) | protein stability index (Saccharomyces cerevisiae [2]) | protein stability index (Saccharomyces cerevisiae [3])
45 | CTVSLPILLFFR | 0.0564 | 0.619 | –
46 | DSLRVLLPLYFR | 0.33 | 0.676 | –
47 | GITLPMCPLLLR | 0.099 | 0.668 | –
48 | GLKMCSVGCWFR | 0.247 | 0.678 | –
49 | GLYMCKVGCWFR | 0.396 | 0.631 | –
50 | GLYMCSIGCWFR | 0.231 | 0.602 | –
51 | RLIQPPPVQFLN | 0.06 | – | 0.641
52 | RLIQPTPVQFLN | 0.192 | – | 0.563
53 | RLIQRLPVQFLN | 0.0385 | – | 0.646
54 | RLIQSLPVQFLN | 0.0478 | – | 0.574
55 | RLIQVLPVQFLN | 0.0583 | – | 0.611
56 | RLISPLPVQFLN | 0.0608 | – | 0.622
57 | RLIYPLPVQFLN | 0.0272 | – | 0.58
58 | RLWQPLPVQFLN | 0.069 | – | 0.608
59 | RYIQPLPVQFLN | 0.0617 | – | 0.564
60 | VAGAVGGWRLVG | 0.142 | – | 0.681
61 | VCGAVGGWRLVG | 0.118 | – | 0.686
62 | VIGAVGGWRLVG | 0.115 | – | 0.689
63 | VRDAVGGWRLVG | 0.172 | – | 0.654
64 | VRFAVGGWRLVG | 0.0977 | – | 0.678
65 | VRGAFGGWRLVG | 0.144 | – | 0.668
66 | VRGAHGGWRLVG | 0.146 | – | 0.662

Row | Sequence | protein stability index (Saccharomyces cerevisiae [1]) | protein stability index (Saccharomyces cerevisiae [2]) | protein stability index (Saccharomyces cerevisiae [3])
67 | VRGAMGGWRLVG | 0.202 | – | 0.746
68 | VRGASGGWRLVG | 0.172 | – | 0.674
69 | VRGAVCGWRLVG | 0.125 | – | 0.673
70 | VRGAVGGQRLVG | 0.643 | – | 0.677
71 | VRGAVGGVRLVG | 0.645 | – | 0.654
72 | VRGAVGGWCLVG | 0.441 | – | 0.674
73 | VRGAVGGWGLVG | 0.28 | – | 0.616
74 | VRGAVGGWPLVG | 0.596 | – | 0.692
75 | VRGAVGGWREVG | 0.504 | – | 0.654
76 | VRGAVGGWRLVGA | 0.524 | – | 0.692
77 | VRGAVGGWRLVGD | 0.646 | – | 0.694
78 | VRGAVGGWRLVGF | 0.666 | – | 0.693
79 | VRGAVGGWRLVGY | 0.638 | – | 0.682
80 | VRGAVGGWRLVK | 0.668 | – | 0.689
81 | VRGAVGGWRQVG | 0.189 | – | 0.677
82 | VRGAVGSWRLVG | 0.157 | – | 0.68
83 | VRGGVGGWRLVG | 0.206 | – | 0.683
84 | VRGSVGGWRLVG | 0.14 | – | 0.681
85 | VRGYVGGWRLVG | 0.174 | – | 0.69
86 | VRHAVGGWRLVG | 0.116 | – | 0.671
87 | YDKRNHLIKLLN | 0.138 | – | 0.581
